Source: patent US20210355219A1 (HARPOON THERAPEUTICS, published 2021)

B1: anti-Alb mask070 anti-CD40 C2882, C2764 (aCD40 Heavy Chain GDSE) (bispecific antibody, human IgG1, kappa)
heavy: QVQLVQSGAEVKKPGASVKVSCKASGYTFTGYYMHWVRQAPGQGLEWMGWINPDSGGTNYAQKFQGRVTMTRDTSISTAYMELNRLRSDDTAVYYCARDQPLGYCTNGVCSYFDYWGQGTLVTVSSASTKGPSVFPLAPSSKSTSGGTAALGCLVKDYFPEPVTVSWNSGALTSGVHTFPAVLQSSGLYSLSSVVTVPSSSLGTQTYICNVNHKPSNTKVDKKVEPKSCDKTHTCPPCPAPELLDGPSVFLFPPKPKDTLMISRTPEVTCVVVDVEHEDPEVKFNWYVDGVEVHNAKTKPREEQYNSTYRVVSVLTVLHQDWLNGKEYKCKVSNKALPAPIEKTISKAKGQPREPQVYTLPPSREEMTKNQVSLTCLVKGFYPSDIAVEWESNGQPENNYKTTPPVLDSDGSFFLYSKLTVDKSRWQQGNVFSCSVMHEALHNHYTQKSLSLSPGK
light: EVQLVESGGGLVQPGNSLTLSCAASGFTFSKFGMSWVRQARAASAGQGLEWVSSISGSGRDTLYADSVKGRFTISRDNAKTTLYLQMNSLRPEDTAVYYCTIGGSLSVSSQGTLVTVSSGGGGSGGGSGGGGSGGGSDIQMTQSPSSVSASVGDRVTITCRASQGIYSWLAWYQQKPGKAPNLLIYTASTLQSGVPSRFSGSGSGTDFTLTISSLQPEDFATYYCQQANIFPLTFGGGTKVEIKRTVAAPSVFIFPPSDEQLKSGTASVVCLLNNFYPREAKVQWKVDNALQSGNSQESVTEQDSKDSTYSLSSTLTLSKADYEKHKVYACEVTHQGLSSPVTKSFNRGEC
notes: Non-cleavable linker; Purified by Protein A. Same light chain as m2 but with the GDSE heavy chain C2764; also called C2882 aAlb-CD40-mask070
B2: Unmasked anti-CD40 C00697, C2764 (aCD40 Heavy Chain GDSE) (antibody, human IgG1, kappa, V domains shown)
VH: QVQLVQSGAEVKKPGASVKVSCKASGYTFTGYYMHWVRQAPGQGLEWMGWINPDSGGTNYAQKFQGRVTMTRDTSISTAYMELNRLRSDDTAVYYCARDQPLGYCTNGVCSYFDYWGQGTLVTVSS
VL: DIQMTQSPSSVSASVGDRVTITCRASQGIYSWLAWYQQKPGKAPNLLIYTASTLQSGVPSRFSGSGSGTDFTLTISSLQPEDFATYYCQQANIFPLTFGGGTKVEIKR
notes: Anti-CD40 light chain without an anti-Alb domain; also called Active mimic C00697, C2764; control active mimic

Legend:
C00703 huCD40::Fc [1] = biological target: T1, C00703 huCD40::Fc (human); experiment: ELISA, immobilized huCD40; EC50 shift against unmasked anti-CD40
T1 construct: also called human CD40 protein; immobilized huCD40

C00703 huCD40::Fc [2] = biological target: T1, C00703 huCD40::Fc; experiment: ELISA, immobilized huCD40, purified protein
[3] = biological target: CD40 on purified human B cells (human, UniProt P25942 21-277); experiment: cell-based or functional assay
C00703 huCD40::Fc [4] = biological target: T1, C00703 huCD40::Fc; experiment: ELISA, immobilized huCD40; the reference of the shift

T1 sequence (chain, as listed by the source limits assumed): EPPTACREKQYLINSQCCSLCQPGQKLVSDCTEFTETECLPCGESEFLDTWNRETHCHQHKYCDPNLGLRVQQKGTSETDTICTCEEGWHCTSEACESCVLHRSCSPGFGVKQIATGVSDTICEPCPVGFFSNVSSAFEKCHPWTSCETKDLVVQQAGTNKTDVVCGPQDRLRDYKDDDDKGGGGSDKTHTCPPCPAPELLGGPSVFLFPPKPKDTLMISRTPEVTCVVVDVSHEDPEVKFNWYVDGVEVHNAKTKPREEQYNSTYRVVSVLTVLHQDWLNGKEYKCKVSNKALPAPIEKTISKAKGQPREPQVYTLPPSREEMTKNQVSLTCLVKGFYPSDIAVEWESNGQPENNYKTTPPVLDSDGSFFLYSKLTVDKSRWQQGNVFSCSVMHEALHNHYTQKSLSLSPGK
Chain of CD40 on purified human B cells (P25942 21-277): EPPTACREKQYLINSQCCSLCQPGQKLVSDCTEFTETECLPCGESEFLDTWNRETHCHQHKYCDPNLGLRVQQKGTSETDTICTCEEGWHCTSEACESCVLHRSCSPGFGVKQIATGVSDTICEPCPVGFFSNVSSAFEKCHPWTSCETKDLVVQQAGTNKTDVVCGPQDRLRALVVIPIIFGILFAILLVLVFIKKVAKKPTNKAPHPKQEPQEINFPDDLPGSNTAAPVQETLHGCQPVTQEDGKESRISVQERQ

Binder	Binding shift (C00703 huCD40::Fc [1]) [fold]	EC50 (C00703 huCD40::Fc [2]) [nM]	Activity shift, B cell activation [3] [fold]	Binding shift (C00703 huCD40::Fc [4]) [fold]	EC50 (M), B cell activation (percentage of CD86 positive B cells, flow cytometry, 48 hours) [3] [M]
B1	52	25	2000	–	–
B2	–	0.48	1	1	2.1e-11
